Measured values from US20210261636A1, “NEOANTIGENS EXPRESSED IN MULTIPLE MYELOMA AND THEIR USES” (Janssen Biotech, Inc., priority 2020, published 2021).

What was measured:
CD8+ T cells = assay: Exogenous autologous healthy donor restimulation assay, TNFα and IFNγ production by CD8+ T cells; assay type: cell-based, human; design: Frequency (TNFα+ IFNγ+ CD8 T cells): unit not given here; conditions: for Fold change (CD8+) vs. DMSO: maximum CD8+ T-cell response (TNFα and IFNγ); for Fold change (CD8+) vs. DMSO / Frequency (TNFα+ IFNγ+ CD8 T cells): donor independent, peptide pool 10 μg/mL, healthy donors; for Frequency (TNFα+ IFNγ+ CD8 T cells): maximum CD8+ T-cell response; for Immunogenic (yes/no): positive if CD8+ and/or CD4+ double positive TNFα/IFNγ frequency >=3-fold over DMSO and at least 0.01%
How it was run: (§1)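 CD1c+ DCs from healthy donor PBMCs pulsed 2 h with 15-mer overlapping neoantigen peptide pools (10 μg/mL), irradiated 50 Gy, then co-cultured 12 days with autologous CD3+ T cells plus IL-15/IL-2. Restimulated day 11 with same pools, overnight with protein inhibitor; intracellular TNFα/IFNγ by flow. Positive: ≥3-fold over DMSO and ≥0.01% double-positive.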

CD4+ T cells = assay: Exogenous autologous healthy donor restimulation assay, TNFα and IFNγ production by CD4+ T cells; assay type: cell-based, human; design: Frequency (TNFα+ IFNγ+ CD4 T cells): unit not given here; conditions: donor independent, peptide pool 10 μg/mL, healthy donors; for Fold change (CD4+) vs. DMSO: maximum CD4+ T-cell response (TNFα and IFNγ); for Frequency (TNFα+ IFNγ+ CD4 T cells): maximum CD4+ T-cell response
How it was run: as §1

B1: MSATTGSQDNPEGKRDPSRKFQEQKALPKRPPLQKNLRNGVGQHYPATLTSRTRNSIKMRHSRTTRARRPPPSPVLPWAASNSQARPETSSLSEKSPEV (peptide)
chain: MSATTGSQDNPEGKRDPSRKFQEQKALPKRPPLQKNLRNGVGQHYPATLTSRTRNSIKMRHSRTTRARRPPPSPVLPWAASNSQARPETSSLSEKSPEV
notes: alternative splicing, CSAG1
CD8+ T cells
  Fold change (CD8+) vs. DMSO: 6327.68
  Frequency (TNFα+ IFNγ+ CD8 T cells): 11.2
  Immunogenic (yes/no): Yes
CD4+ T cells
  Fold change (CD4+) vs. DMSO: 79.18
  Frequency (TNFα+ IFNγ+ CD4 T cells): 0.12

B2: EIEGSCHGGMITMDIKMGSYSCDYLKHSETLSAMVVSCGISFLFLFPRKKIAKLIFKEQVP (peptide)
chain: EIEGSCHGGMITMDIKMGSYSCDYLKHSETLSAMVVSCGISFLFLFPRKKIAKLIFKEQVP
notes: alternative splicing, EPHA6
CD8+ T cells
  Fold change (CD8+) vs. DMSO: 100
  Frequency (TNFα+ IFNγ+ CD8 T cells): 17
  Immunogenic (yes/no): Yes
CD4+ T cells
  Fold change (CD4+) vs. DMSO: 111.44
  Frequency (TNFα+ IFNγ+ CD4 T cells): 0.57

B3: RQREVVDLVKKDLVMRAVSLGTQRGDQNGRPSWSGHAIWARIMECAYKGQQECLVETGALGPMAFRVHLGSQVGMDSKEKRGNV (peptide)
chain: RQREVVDLVKKDLVMRAVSLGTQRGDQNGRPSWSGHAIWARIMECAYKGQQECLVETGALGPMAFRVHLGSQVGMDSKEKRGNV
notes: alternative splicing, CTHRC1
CD8+ T cells
  Fold change (CD8+) vs. DMSO: 288.14
  Frequency (TNFα+ IFNγ+ CD8 T cells): 0.51
  Immunogenic (yes/no): Yes
CD4+ T cells
  Fold change (CD4+) vs. DMSO: 223.78
  Frequency (TNFα+ IFNγ+ CD4 T cells): 0.16

B4: VYPVYQPVVSQAGLGELWQWASGKLRGYCWRRGQWHAYSIQCDPHPVFGEGACDCSETEAHGGCQSPRLESFPGQPPGFRGQRF (peptide)
chain: VYPVYQPVVSQAGLGELWQWASGKLRGYCWRRGQWHAYSIQCDPHPVFGEGACDCSETEAHGGCQSPRLESFPGQPPGFRGQRF
notes: gene fusion NDUFB8-> SEC31B
CD8+ T cells
  Fold change (CD8+) vs. DMSO: 42.81
  Frequency (TNFα+ IFNγ+ CD8 T cells): 0.064
  Immunogenic (yes/no): Yes
CD4+ T cells
  Fold change (CD4+) vs. DMSO: 1.94
  Frequency (TNFα+ IFNγ+ CD4 T cells): 0.011

B5: GWKICREGIGPVMLTMTSGEWSFSFLEAICGVSREPVPRRRHCIWDTRGGVGLCEASCWRPTSEVG (peptide)
chain: GWKICREGIGPVMLTMTSGEWSFSFLEAICGVSREPVPRRRHCIWDTRGGVGLCEASCWRPTSEVG
notes: alternative splicing, STARD5
CD8+ T cells
  Fold change (CD8+) vs. DMSO: 874.02
  Frequency (TNFα+ IFNγ+ CD8 T cells): 7.77
  Immunogenic (yes/no): Yes
CD4+ T cells
  Fold change (CD4+) vs. DMSO: 44.35
  Frequency (TNFα+ IFNγ+ CD4 T cells): 0.081

B6: YESPIFSRDRVNPGALSGSLGQARAACWRTLGSLKPGGEFRAAEQRRAGWVPGAPGFTCSLISSRFPRERFCLRHRSSWRGARRVQCVCPGQTEGLWL (peptide)
chain: YESPIFSRDRVNPGALSGSLGQARAACWRTLGSLKPGGEFRAAEQRRAGWVPGAPGFTCSLISSRFPRERFCLRHRSSWRGARRVQCVCPGQTEGLWL
notes: alternative splicing, WNT10A
CD8+ T cells
  Fold change (CD8+) vs. DMSO: 38.74
  Frequency (TNFα+ IFNγ+ CD8 T cells): 0.095
  Immunogenic (yes/no): Yes
CD4+ T cells
  Fold change (CD4+) vs. DMSO: 12.303
  Frequency (TNFα+ IFNγ+ CD4 T cells): 0.071
